# Test system: Meis1
substance,measurement,value
MYC-CUL4A,steady-state levels (immunoblot),the HOX co-factor Meis1 was not subjected to CUL4A-mediated degradation

# Reference: patent US20150368613
